Key:
hASIC1a-eYFP = molecular target: T1, hASIC1a-eYFP (Homo sapiens, UniProt P78348); assay: Western blot and immunoprecipitation of 6H7 cell lysate; assay type: binding; set-up: expressed in transfected cells
T1 sequence (P78348 1-528): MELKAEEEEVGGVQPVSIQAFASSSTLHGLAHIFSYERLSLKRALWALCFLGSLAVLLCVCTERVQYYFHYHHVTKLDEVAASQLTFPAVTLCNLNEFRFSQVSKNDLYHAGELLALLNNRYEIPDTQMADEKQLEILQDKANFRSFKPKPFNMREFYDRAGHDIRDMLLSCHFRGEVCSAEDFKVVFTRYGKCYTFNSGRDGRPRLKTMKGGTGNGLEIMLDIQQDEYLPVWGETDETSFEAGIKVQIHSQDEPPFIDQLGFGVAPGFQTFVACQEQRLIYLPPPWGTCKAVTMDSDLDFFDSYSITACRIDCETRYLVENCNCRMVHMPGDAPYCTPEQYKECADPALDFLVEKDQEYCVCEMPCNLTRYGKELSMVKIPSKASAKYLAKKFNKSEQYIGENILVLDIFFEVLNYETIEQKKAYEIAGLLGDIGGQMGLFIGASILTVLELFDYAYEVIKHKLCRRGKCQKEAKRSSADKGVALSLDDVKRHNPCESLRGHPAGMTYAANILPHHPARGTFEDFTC
From the text: To characterize the interaction between ASC06-IgG1 and hASIC1a, the 6H7 stable line expressing the hASIC1a-eYFP fusion protein was used in a Western blot analysis. […] In contrast, both the commercial goat polyclonal anti-ASIC1 antibody and the anti-eYFP antibody were able to detect the hASIC1a-eYFP protein in the 6H7 lysate at molecular mass around 100 kDa (FIG. 13A and data not shown).
ASC06-IgG1 was used to pull down native hASIC1a-YFP in cell lysate followed by anti-eYFP Western blot for hASIC1a-YFP detection.

mASIC1a-eYFP = molecular target: T2, mASIC1a-eYFP (Mus musculus, UniProt Q6NXK8); assay: Species/subtype selectivity, FACS binding and ICC, transfected CHO-K1 cells; assay type: cell-based
T2 construct: expressed in transfected cells; host or cells: CHO-K1, transient
T2 sequence (Q6NXK8 1-526): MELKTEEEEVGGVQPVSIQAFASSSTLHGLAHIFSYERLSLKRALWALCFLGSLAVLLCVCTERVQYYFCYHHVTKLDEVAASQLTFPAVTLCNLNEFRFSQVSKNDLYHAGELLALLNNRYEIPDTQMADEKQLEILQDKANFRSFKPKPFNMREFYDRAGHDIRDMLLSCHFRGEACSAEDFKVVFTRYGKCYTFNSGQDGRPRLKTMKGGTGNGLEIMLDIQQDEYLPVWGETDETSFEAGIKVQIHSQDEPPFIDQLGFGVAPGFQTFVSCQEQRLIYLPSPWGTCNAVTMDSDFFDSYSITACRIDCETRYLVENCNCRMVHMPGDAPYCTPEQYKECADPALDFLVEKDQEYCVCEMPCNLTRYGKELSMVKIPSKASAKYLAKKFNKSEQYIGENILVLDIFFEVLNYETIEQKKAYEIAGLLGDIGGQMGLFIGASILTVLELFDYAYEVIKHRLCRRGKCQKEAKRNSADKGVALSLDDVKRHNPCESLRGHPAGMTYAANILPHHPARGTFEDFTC
Experimental: Cell Membrane Colocalization Studies Using Immunocytochemistry (ICC). Cells (CHO-K1) were seeded onto the poly-D-lysine-coated glass bottom 24-well plates at a concentration of 2×10^5 cells per mL. After 12 h of cultivation, the CHO-K1 cells were transfected with ASIC plasmids by Lipofectin 3000 reagent. Twenty-four hours after transfection, the cells were fixed in 4% paraformaldehyde and incubated for 30 min in a blocking solution (5% goat serum in PBS). The resulting cells were incubated with […] ASC06-IgG1 at 4° C. overnight followed by three PBS washes for 5 min each and incubation with the Alexa555-conjugated goat anti-human secondary antibody (Life Technology). After three additional PBS washes for 5 min each, the nuclei of the cells were stained with DAPI (#10236276001; Roche). The ICC analysis was performed on a laser scanning confocal microscopy (ZEISS LSM710) with a 63×N.A. 1.4 objective at 25° C. Images were collected on a 1,024×1,024-pixel EM-CCD camera. Data acquisition and analyses were performed with the ZEN 2012 professional software.
To test the species and subtype selectivity of ASC06-IgG1, vectors encoding human ASIC1b-eYFP fusion, rat ASIC1a-eYFP fusion, mouse ASIC1a-eYFP fusion, hASIC2a-eYFP fusion, hASIC2b-eYFP fusion, and hASIC3a-eYFP fusion were constructed. The CHO-K1 cells were transiently transfected with these plasmids. FACS binding assay and immunocytochemistry (ICC) were carried out to determine if ASC06-IgG1 is able to bind to the cell surface-expressed ASIC homologs and isotypes.

ΔhASIC1a = molecular target: T3, ΔhASIC1a (Homo sapiens, UniProt P78348); assay: Biacore SPR binding affinity, single cycle kinetic model; details: Biacore T200, purified ΔhASIC1a protein, read-out: apparent KD / binding affinity to ΔhASIC1a
T3 construct: A truncated ASIC1a (amino acids 13-464; ΔhASIC1a) was overexpressed and purified; made in house; host or cells: HEK293F (BacMam baculovirus)
T3 sequence (P78348 13-464): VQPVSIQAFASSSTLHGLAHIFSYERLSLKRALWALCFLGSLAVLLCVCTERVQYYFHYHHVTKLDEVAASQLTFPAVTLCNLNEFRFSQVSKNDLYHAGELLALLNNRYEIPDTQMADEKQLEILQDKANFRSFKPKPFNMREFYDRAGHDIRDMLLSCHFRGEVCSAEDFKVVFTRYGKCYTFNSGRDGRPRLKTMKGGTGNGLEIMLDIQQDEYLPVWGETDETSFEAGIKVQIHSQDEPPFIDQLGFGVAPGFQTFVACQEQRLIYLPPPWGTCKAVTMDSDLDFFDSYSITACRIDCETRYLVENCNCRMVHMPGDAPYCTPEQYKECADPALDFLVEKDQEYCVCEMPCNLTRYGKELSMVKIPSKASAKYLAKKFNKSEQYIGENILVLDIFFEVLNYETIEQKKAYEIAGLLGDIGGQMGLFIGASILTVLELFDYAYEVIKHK
Experimental: Surface plasmon resonance (SPR) and flow cytometry were used to study the interaction between the monoclonal antibody and hASIC1a. SPR-binding studies were performed on a Biacore T200 (GE Healthcare). The anti-Flag antibody was amine coupled to the surface of a biosensor chip CM5 series S (GE Healthcare). The recombinant Flag-tagged ΔhASIC1a was then immobilized onto the chip surface. […] The kinetics of binding/dissociation was measured as a change in the SPR signal resonance units. Apparent binding affinities were calculated using the Biacore T200 evaluation software with a single-cycle kinetic model.

B1: ASC06-IgG1: ASC06 antibody converted into a full length IgG1 form (antibody, V domains shown)
VH: QVQLQQSGGGLVQPGGSLRLSCAASGFTFSSYAMSWVRQAPGKGLEWVSAISGSGGSTYYADSVKGRFTISRDNSKNTLYLQMNSLRAEDTAVYYCAKDSFYGYSKGDWGQGTLVTVSS
VL: QSALTQPASVSGSPGQSITISCTGTSSDVGAYNYVSWYQQQPGKAPKLMIYGVSNRPSGVSNRFSGSKSGNAASLTISGLQAEDEADYYCSSYTSSSTYVFGTGTKLTVLG
B1 was tested, and the “recognition of hASIC1a in cell lysate in Western blot” value (hASIC1a-eYFP; denatured lysate of 6H7 cells) was “could not recognize”, the “pull down of native hASIC1a-YFP, anti-eYFP Western blot” value (hASIC1a-eYFP; immunoprecipitation) was “recognized hASIC1a in a conformation-dependent manner” and the “FACS recognition of mouse ASIC1a” value (mASIC1a-eYFP; FACS) was “recognized”. The “ICC membrane co-localization with mASIC1a-eYFP” value (mASIC1a-eYFP; ICC staining) was “membrane co-localization” and the Kd (ΔhASIC1a) was 7.9 nM.

Source: patent US12692310B2, “ASIC1 channel antagonist antibody” (ShanghaiTech University, priority 2019, dated 2026)
